Results published in the supplement of paper PMC9112550, “Optimization of the antimicrobial peptide Bac7 by deep mutational scanning” (BMC Biology, 2022).

Test system: Escherichia coli TOP10
Experiment: shrunken log2 fold change of peptide-encoding DNA abundance (4.5 h post-induction vs induction); higher = less antimicrobial activity (less host growth inhibition)
Settings: time post-induction: 4.5 h; library: site-saturation at positions 5, 18, 19, 20
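Also: peptides expressed intracellularly from a pBAD plasmid library in pooled LB shake-flask culture, induced with 0.3% L-arabinose, DNA abundance read by NGS, three biological replicates, DESeq2 with apeglm shrinkage.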

Sequence | shrunken log2 fold change
RRIRNRPPRLPRPRPRPRRCPRP | 0.291
RRIRNRPPRLPRPRPRPRRDPRP | -0.0239
RRIRNRPPRLPRPRPRPRRLPRP | 2.6
RRIRNRPPRLPRPRPRPRRQPRP | 0.227
RRIRNRPPRLPRPRPRPRRWPRP | 0.701
RRIRNRPPRLPRPRPRPRSDPRP | 0.0587
RRIRNRPPRLPRPRPRPRSVPRP | 0.258
RRIRNRPPRLPRPRPRPRVNPRP | -0.0734
RRIRNRPPRLPRPRPRPRYRPRP | -0.0876
RRIRNRPPRLPRPRPRPSANPRP | -0.379
RRIRNRPPRLPRPRPRPSCCPRP | -0.318
RRIRNRPPRLPRPRPRPSFAPRP | 0.00213
RRIRNRPPRLPRPRPRPSFVPRP | -0.266
RRIRNRPPRLPRPRPRPSHCPRP | -0.801
RRIRNRPPRLPRPRPRPSHLPRP | -0.438
RRIRNRPPRLPRPRPRPSHYPRP | -1.22
RRIRNRPPRLPRPRPRPSKFPRP | -0.601
RRIRNRPPRLPRPRPRPSMRPRP | 0.000173
RRIRNRPPRLPRPRPRPSMTPRP | 0.0898
RRIRNRPPRLPRPRPRPSNCPRP | -0.801
RRIRNRPPRLPRPRPRPSNHPRP | -0.603
RRIRNRPPRLPRPRPRPSPKPRP | 0.191
RRIRNRPPRLPRPRPRPSQGPRP | -0.154
RRIRNRPPRLPRPRPRPSRAPRP | 0.121
RRIRNRPPRLPRPRPRPSRDPRP | -0.129

Sequence | shrunken log2 fold change
RRIRNRPPRLPRPRPRPSRIPRP | -0.234
RRIRNRPPRLPRPRPRPSRLPRP | 0.14
RRIRNRPPRLPRPRPRPSRQPRP | 0.0744
RRIRNRPPRLPRPRPRPSSPPRP | 0.0179
RRIRNRPPRLPRPRPRPSTGPRP | -0.266
RRIRNRPPRLPRPRPRPSVSPRP | -0.44
RRIRNRPPRLPRPRPRPSYDPRP | -0.452
RRIRNRPPRLPRPRPRPTAMPRP | 0.285
RRIRNRPPRLPRPRPRPTCKPRP | -0.0431
RRIRNRPPRLPRPRPRPTCLPRP | -0.0993
RRIRNRPPRLPRPRPRPTENPRP | 0.0685
RRIRNRPPRLPRPRPRPTFIPRP | -0.279
RRIRNRPPRLPRPRPRPTHGPRP | -0.0213
RRIRNRPPRLPRPRPRPTHKPRP | 0.322
RRIRNRPPRLPRPRPRPTIMPRP | -0.0883
RRIRNRPPRLPRPRPRPTKRPRP | -0.301
RRIRNRPPRLPRPRPRPTNMPRP | -0.753
RRIRNRPPRLPRPRPRPTPEPRP | 0.0889
RRIRNRPPRLPRPRPRPTPTPRP | 0.674
RRIRNRPPRLPRPRPRPTQGPRP | 0.331
RRIRNRPPRLPRPRPRPTQHPRP | 0.0469
RRIRNRPPRLPRPRPRPTSFPRP | 0.00362
RRIRNRPPRLPRPRPRPTTGPRP | 0.0259
RRIRNRPPRLPRPRPRPTTLPRP | -0.294
RRIRNRPPRLPRPRPRPTTVPRP | -0.12

Sequence | shrunken log2 fold change
RRIRNRPPRLPRPRPRPTVEPRP | 0.0287
RRIRNRPPRLPRPRPRPTVFPRP | 0.0462
RRIRNRPPRLPRPRPRPVAYPRP | 0.0201
RRIRNRPPRLPRPRPRPVCAPRP | 0.559
RRIRNRPPRLPRPRPRPVCQPRP | -0.0808
RRIRNRPPRLPRPRPRPVDCPRP | -0.209
RRIRNRPPRLPRPRPRPVDHPRP | -0.01
RRIRNRPPRLPRPRPRPVFPPRP | -0.000239
RRIRNRPPRLPRPRPRPVGMPRP | 0.23
RRIRNRPPRLPRPRPRPVIIPRP | -0.0963
RRIRNRPPRLPRPRPRPVIPPRP | -0.462
RRIRNRPPRLPRPRPRPVIQPRP | 0.0549
RRIRNRPPRLPRPRPRPVISPRP | 0.156
RRIRNRPPRLPRPRPRPVIYPRP | -0.301
RRIRNRPPRLPRPRPRPVKHPRP | -0.23
RRIRNRPPRLPRPRPRPVLAPRP | 0.093
RRIRNRPPRLPRPRPRPVLRPRP | 0.00524
RRIRNRPPRLPRPRPRPVLWPRP | 0.00135
RRIRNRPPRLPRPRPRPVNMPRP | 0.131
RRIRNRPPRLPRPRPRPVQYPRP | -0.000777
RRIRNRPPRLPRPRPRPVSGPRP | 0.172
RRIRNRPPRLPRPRPRPVSKPRP | 0.124
RRIRNRPPRLPRPRPRPVSQPRP | -0.0152
RRIRNRPPRLPRPRPRPVSWPRP | 0.162
RRIRNRPPRLPRPRPRPVTGPRP | -0.362

Sequence | shrunken log2 fold change
RRIRNRPPRLPRPRPRPVTKPRP | 0.0334
RRIRNRPPRLPRPRPRPVTQPRP | 0.0396
RRIRNRPPRLPRPRPRPVTWPRP | -0.0637
RRIRNRPPRLPRPRPRPVVEPRP | -0.00885
RRIRNRPPRLPRPRPRPVVGPRP | 0.392
RRIRNRPPRLPRPRPRPVYKPRP | -0.453
RRIRNRPPRLPRPRPRPWASPRP | 0.00581
RRIRNRPPRLPRPRPRPWCCPRP | 0.007
RRIRNRPPRLPRPRPRPWGIPRP | -0.199
RRIRNRPPRLPRPRPRPWGQPRP | 0.0191
RRIRNRPPRLPRPRPRPWKIPRP | 0.089
RRIRNRPPRLPRPRPRPWMHPRP | -0.228
RRIRNRPPRLPRPRPRPWPFPRP | 0.0256
RRIRNRPPRLPRPRPRPWRMPRP | 0.0039
RRIRNRPPRLPRPRPRPWTVPRP | -0.0833
RRIRNRPPRLPRPRPRPWWIPRP | -0.00145
RRIRNRPPRLPRPRPRPWYDPRP | -0.0695
RRIRNRPPRLPRPRPRPYEDPRP | -0.173
RRIRNRPPRLPRPRPRPYEHPRP | -0.151
RRIRNRPPRLPRPRPRPYFFPRP | -0.482
RRIRNRPPRLPRPRPRPYFPPRP | -0.143
RRIRNRPPRLPRPRPRPYIWPRP | -0.588
RRIRNRPPRLPRPRPRPYKTPRP | -0.0391
RRIRNRPPRLPRPRPRPYLEPRP | -0.00618
RRIRNRPPRLPRPRPRPYMCPRP | -0.18

Sequence | shrunken log2 fold change
RRIRNRPPRLPRPRPRPYMSPRP | -0.019
RRIRNRPPRLPRPRPRPYNIPRP | -0.13
RRIRNRPPRLPRPRPRPYPYPRP | -0.242
RRIRNRPPRLPRPRPRPYREPRP | 0.0155
RRIRNRPPRLPRPRPRPYRNPRP | -0.0239
RRIRNRPPRLPRPRPRPYSVPRP | -0.0155
RRIRNRPPRLPRPRPRPYTMPRP | -0.38
RRIRNRPPRLPRPRPRPYVKPRP | -0.626
RRIRNRPPRLPRPRPRPYVRPRP | -0.451
RRIRNRPPRLPRPRPRPYWDPRP | -0.54
RRIRNRPPRLPRPRPRPYWGPRP | 0.0237
RRIRNRPPRLPRPRPRPYWVPRP | -0.134
RRIRNRPPRLPRPRPRPYYKPRP | -1.46
RRIRPRPPRLPRPRPRPAAMPRP | 0.302
RRIRPRPPRLPRPRPRPAARPRP | 0.727
RRIRPRPPRLPRPRPRPACYPRP | -0.199
RRIRPRPPRLPRPRPRPADGPRP | 0.297
RRIRPRPPRLPRPRPRPADWPRP | 0.434
RRIRPRPPRLPRPRPRPAERPRP | 0.291
RRIRPRPPRLPRPRPRPAEYPRP | -0.565
RRIRPRPPRLPRPRPRPAGVPRP | 0.392
RRIRPRPPRLPRPRPRPAHCPRP | 0.0637
RRIRPRPPRLPRPRPRPAHQPRP | 0.387
RRIRPRPPRLPRPRPRPAIHPRP | -0.196
RRIRPRPPRLPRPRPRPAIQPRP | -0.00944

Sequence | shrunken log2 fold change
RRIRPRPPRLPRPRPRPAMEPRP | 0.226
RRIRPRPPRLPRPRPRPASHPRP | 0.0473
RRIRPRPPRLPRPRPRPATQPRP | 0.133
RRIRPRPPRLPRPRPRPAVRPRP | -0.246
RRIRPRPPRLPRPRPRPAVSPRP | 0.171
RRIRPRPPRLPRPRPRPAVVPRP | 0.197
RRIRPRPPRLPRPRPRPAWMPRP | 0.372
RRIRPRPPRLPRPRPRPAWNPRP | 0.396
RRIRPRPPRLPRPRPRPAWWPRP | 0.259
RRIRPRPPRLPRPRPRPAWYPRP | 0.0306
RRIRPRPPRLPRPRPRPCAEPRP | 0.27
RRIRPRPPRLPRPRPRPCCAPRP | 0.0786
RRIRPRPPRLPRPRPRPCCCPRP | 0.368
RRIRPRPPRLPRPRPRPCCEPRP | -0.116
RRIRPRPPRLPRPRPRPCCYPRP | -0.47
RRIRPRPPRLPRPRPRPCDIPRP | 0.024
RRIRPRPPRLPRPRPRPCDQPRP | -0.758
RRIRPRPPRLPRPRPRPCDSPRP | 0.301
RRIRPRPPRLPRPRPRPCFFPRP | -0.0762
RRIRPRPPRLPRPRPRPCFKPRP | -0.341
RRIRPRPPRLPRPRPRPCHEPRP | -0.316
RRIRPRPPRLPRPRPRPCIGPRP | 0.00708
RRIRPRPPRLPRPRPRPCLEPRP | -0.0989
RRIRPRPPRLPRPRPRPCLKPRP | -0.0625
RRIRPRPPRLPRPRPRPCMVPRP | -0.423
